From paper PMC6083883 (Molecular cell, 2018)

Molecular target: recombinant biotin-FLAG-tagged human ATM (human, UniProt Q13315 1-3056, biotin)
Assay: pull-down

Sequence of recombinant biotin-FLAG-tagged human ATM (Q13315 whole entry): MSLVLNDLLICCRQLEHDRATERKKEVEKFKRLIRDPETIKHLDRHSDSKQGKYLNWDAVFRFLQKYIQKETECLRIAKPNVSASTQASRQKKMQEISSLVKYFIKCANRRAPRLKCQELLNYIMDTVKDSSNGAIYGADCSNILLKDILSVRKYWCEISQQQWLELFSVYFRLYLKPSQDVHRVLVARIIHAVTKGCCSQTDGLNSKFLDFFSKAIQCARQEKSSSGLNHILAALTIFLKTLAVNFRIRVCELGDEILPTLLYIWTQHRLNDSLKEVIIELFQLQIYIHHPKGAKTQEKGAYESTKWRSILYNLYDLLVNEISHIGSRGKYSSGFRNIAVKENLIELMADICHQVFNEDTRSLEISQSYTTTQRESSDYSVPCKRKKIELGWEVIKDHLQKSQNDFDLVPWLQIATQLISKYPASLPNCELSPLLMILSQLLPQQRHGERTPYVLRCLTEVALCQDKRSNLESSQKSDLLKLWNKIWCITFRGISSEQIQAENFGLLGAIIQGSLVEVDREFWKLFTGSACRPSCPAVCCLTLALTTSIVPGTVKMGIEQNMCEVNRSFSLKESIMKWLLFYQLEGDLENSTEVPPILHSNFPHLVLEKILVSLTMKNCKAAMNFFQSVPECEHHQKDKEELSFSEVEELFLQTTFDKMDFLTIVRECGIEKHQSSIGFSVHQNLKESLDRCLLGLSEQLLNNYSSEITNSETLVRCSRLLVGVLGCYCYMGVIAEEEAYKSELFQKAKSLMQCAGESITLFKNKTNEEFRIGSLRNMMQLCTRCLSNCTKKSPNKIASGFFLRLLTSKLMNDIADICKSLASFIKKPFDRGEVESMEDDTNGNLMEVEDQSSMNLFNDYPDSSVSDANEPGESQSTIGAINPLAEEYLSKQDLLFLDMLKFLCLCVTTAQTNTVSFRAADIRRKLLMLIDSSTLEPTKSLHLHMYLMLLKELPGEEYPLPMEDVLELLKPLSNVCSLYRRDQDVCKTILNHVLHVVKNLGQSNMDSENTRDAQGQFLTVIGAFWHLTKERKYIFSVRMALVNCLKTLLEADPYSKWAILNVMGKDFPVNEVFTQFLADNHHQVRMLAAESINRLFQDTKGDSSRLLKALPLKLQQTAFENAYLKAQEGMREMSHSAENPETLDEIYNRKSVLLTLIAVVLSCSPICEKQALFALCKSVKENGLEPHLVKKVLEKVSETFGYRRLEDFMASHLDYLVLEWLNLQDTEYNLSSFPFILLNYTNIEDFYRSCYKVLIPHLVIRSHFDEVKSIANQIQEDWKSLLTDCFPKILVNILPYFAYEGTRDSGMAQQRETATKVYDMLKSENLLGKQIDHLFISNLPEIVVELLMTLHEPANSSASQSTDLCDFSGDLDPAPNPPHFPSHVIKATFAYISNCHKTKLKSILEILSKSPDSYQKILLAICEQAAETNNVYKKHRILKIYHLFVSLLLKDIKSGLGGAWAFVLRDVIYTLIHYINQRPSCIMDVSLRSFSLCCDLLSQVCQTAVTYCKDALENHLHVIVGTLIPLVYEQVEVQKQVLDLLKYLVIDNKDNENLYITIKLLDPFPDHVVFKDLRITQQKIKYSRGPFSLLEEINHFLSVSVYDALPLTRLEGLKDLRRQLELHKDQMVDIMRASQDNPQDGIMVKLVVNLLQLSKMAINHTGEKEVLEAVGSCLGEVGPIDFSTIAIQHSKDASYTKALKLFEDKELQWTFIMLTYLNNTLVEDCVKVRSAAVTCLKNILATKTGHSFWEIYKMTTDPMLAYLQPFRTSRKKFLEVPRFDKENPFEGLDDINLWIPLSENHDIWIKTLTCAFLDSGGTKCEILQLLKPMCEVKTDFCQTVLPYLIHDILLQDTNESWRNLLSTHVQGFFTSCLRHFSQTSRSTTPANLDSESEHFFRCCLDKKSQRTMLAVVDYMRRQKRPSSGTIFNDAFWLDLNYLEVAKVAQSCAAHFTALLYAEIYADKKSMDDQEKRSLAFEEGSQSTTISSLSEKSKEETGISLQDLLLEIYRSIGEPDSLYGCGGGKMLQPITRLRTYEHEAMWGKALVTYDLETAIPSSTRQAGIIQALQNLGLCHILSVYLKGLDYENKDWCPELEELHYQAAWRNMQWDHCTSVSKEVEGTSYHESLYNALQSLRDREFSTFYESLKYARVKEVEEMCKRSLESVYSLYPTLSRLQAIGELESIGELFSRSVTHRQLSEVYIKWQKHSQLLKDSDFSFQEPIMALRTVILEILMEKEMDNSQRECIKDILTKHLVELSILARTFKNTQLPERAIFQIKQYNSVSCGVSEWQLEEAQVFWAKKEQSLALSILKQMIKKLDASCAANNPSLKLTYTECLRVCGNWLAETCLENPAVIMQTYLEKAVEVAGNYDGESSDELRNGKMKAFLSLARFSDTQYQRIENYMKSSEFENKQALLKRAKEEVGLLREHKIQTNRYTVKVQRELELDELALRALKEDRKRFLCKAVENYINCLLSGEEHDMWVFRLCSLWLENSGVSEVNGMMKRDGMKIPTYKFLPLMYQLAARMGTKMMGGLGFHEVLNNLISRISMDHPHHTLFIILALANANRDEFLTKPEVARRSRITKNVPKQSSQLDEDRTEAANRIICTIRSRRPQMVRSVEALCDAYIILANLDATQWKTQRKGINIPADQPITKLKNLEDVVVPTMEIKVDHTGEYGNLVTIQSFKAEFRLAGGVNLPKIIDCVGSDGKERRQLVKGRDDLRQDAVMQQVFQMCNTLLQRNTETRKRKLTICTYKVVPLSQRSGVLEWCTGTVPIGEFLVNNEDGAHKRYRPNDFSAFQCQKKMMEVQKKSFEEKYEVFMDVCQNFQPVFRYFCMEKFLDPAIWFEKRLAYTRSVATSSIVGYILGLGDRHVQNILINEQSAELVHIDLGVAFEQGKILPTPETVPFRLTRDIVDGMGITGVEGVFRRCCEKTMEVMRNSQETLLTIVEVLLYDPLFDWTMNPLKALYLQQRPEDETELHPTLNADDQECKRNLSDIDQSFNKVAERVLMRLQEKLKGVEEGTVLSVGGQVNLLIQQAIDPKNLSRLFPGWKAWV

- binding result: binds
B1: MBP-tagged human MRI (natural protein, UniProt Q9BWK5 1-157, looked up)
chain: METLQSETKTRVLPSWLTAQVATKNVAPMKAPKRMRMAAVPVAAARLPATRTVYCMNEAEIVDVALGILIESRKQEKACEQPALAGADNPEHSPPCSVSPHTSSGSSSEEEDSGKQALAPGLSPSQRPGGSSSACSRSPEEEEEEDVLKYVREIFFS
